Data: EP0769025B1

What was measured:
[1] = molecular target: monoclonal antibody AF-28; test: competition ELISA, competitor against plate-coated 32-mer for AF-28
[2] = molecular target: monoclonal antibody AF-28; test: competition ELISA, 32-mer as both coating (25 pmoles/ml, Figure 6b) and standard antigen

times less competitive than the 32-mer [1] [times]	IC50 [2] [nM]	Binder
230	–	FGVGGEEDI [… 9-mer]
–	16	FFGVGGEEDITVQTVTWPDMELPLPRNITEGE [… (FFGVG...EGE 32-mer) synthetic peptide]
